Our source for the protein stability index values is the supplement of paper PMC10567573.

The labels stand for the following.
B1: NET1 (parent)
chain: RVRPLARVTSLANLISPVRNGAVR
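Note: lentivirally expressed fusions sorted by FACS into six bins by GFP to DsRed ratio, PSI derived from sequencing read proportions per bin multiplied by bin number.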

Variants of B1 are the subject of the series. Description: protein stability index of a GFP-peptide fusion (GPS, HEK-293T) (PSI 1-6); higher = more stable. The settings on record: c terminus: a fixed tail appended.
In the case of RVRPLARVTSLANLIAPVRNGAVR [S16A], the protein stability index stood at 3.46.
As to RVRPLARVTSLANLIQPVRNGAVR [S16Q], the protein stability index was found to be 3.76.
In the case of RVRPLARVTSLANLILPVRNGAVR [S16L], the protein stability index was found to be 2.49.
Consider RVRPLARVTSLANLIGPVRNGAVR [S16G], for which the protein stability index is 3.14.
As for RVRPLARVTSLANLIDPVRNGAVR [S16D], the protein stability index stood at 2.86.
The same measure for RVRPLARVTSLANLIIPVRNGAVR [S16I]: 2.44; for RVRPLARVTSLANLIWPVRNGAVR [S16W]: 2.55; for RVRPLARVTSLANLIEPVRNGAVR [S16E]: 3.15.
In the case of RVRPLARVTSLANLIFPVRNGAVR [S16F] it was 2.21; in that of RVRPLARVTSLANLIHPVRNGAVR [S16H], 2.83.
Consider RVRPLARVTSLANLIMPVRNGAVR [S16M], for which the protein stability index stood at 2.31.
The same measure for RVRPLARVTSLANLIVPVRNGAVR [S16V]: 2.99.
For the variant RVRPLARVTSLANLIKPVRNGAVR [S16K], the protein stability index was 2.88.
Turning to RVRPLARVTSLANLIYPVRNGAVR [S16Y], the protein stability index is 2.66.
Consider RVRPLARVTSLANLICPVRNGAVR [S16C], for which the protein stability index worked out at 1.25.
For RVRPLARVTSLANLIPPVRNGAVR [S16P], the protein stability index was 3.32.
Take RVRPLARVTSLANLINPVRNGAVR [S16N]: the protein stability index turned out to be 3.23.
In the case of RVRPLARVTSLANLIRPVRNGAVR [S16R], the protein stability index came out at 3.03.
In the case of RVRPLARVTSLANLITPVRNGAVR [S16T] it was 3.56; in that of RVRPLARVTSLANLISPVENGAVR [R19E], 3.55.
In the case of RVRPLARVTSLANLISPVSNGAVR [R19S] it was 3.2; in that of RVRPLARVTSLANLISPVNNGAVR [R19N], 3.28; in that of RVRPLARVTSLANLISPVCNGAVR [R19C], 2.99.
Turning to RVRPLARVTSLANLISPVKNGAVR [R19K], the protein stability index amounted to 2.59.
In the case of RVRPLARVTSLANLISPVTNGAVR [R19T] it was 3.3.
Consider RVRPLARVTSLANLISPVGNGAVR [R19G], for which the protein stability index was found to be 3.4.
For the variant RVRPLARVTSLANLISPVPNGAVR [R19P], the protein stability index worked out at 2.68.
The same measure for RVRPLARVTSLANLISPVINGAVR [R19I]: 3.02.
Consider RVRPLARVTSLANLISPVANGAVR [R19A], for which the protein stability index is 2.96.
In the case of RVRPLARVTSLANLISPVLNGAVR [R19L], the protein stability index turned out to be 2.81.
Turning to RVRPLARVTSLANLISPVHNGAVR [R19H], the protein stability index worked out at 2.69.
In the case of RVRPLARVTSLANLISPVFNGAVR [R19F] it was 2.29.
Regarding RVRPLARVTSLANLISPVQNGAVR [R19Q], the protein stability index came out at 3.06.
Regarding RVRPLARVTSLANLISPVMNGAVR [R19M], the protein stability index worked out at 2.53.
The same measure for RVRPLARVTSLANLISPVDNGAVR [R19D]: 3.76; for RVRPLARVTSLANLTSPVRNGAVR [I15T]: 3.5; for RVRPLARVTSLANLHSPVRNGAVR [I15H]: 4.02.
Take RVRPLARVTSLANLVSPVRNGAVR [I15V]: the protein stability index is 3.39.
Turning to RVRPLARVTSLANLPSPVRNGAVR [I15P], the protein stability index is 3.31.
The same measure for RVRPLARVTSLANLNSPVRNGAVR [I15N]: 3.97; for RVRPLARVTSLANLASPVRNGAVR [I15A]: 4.27; for RVRPLARVTSLANLFSPVRNGAVR [I15F]: 2.76.
As to RVRPLARVTSLANLCSPVRNGAVR [I15C], the protein stability index is 2.76.
In the case of RVRPLARVTSLANLQSPVRNGAVR [I15Q] it was 3.66; in that of RVRPLARVTSLANLKSPVRNGAVR [I15K], 3.27; in that of RVRPLARVTSLANLRSPVRNGAVR [I15R], 3.56.
For RVRPLARVTSLANLWSPVRNGAVR [I15W], the protein stability index was 2.47.
RVRPLARVTSLANLDSPVRNGAVR [I15D]: the protein stability index is 3.65.
Turning to RVRPLARVTSLANLMSPVRNGAVR [I15M], the protein stability index came to 3.29.
Consider RVRPLARVTSLANLGSPVRNGAVR [I15G], for which the protein stability index is 3.6.
For the variant RVRPLARVTSLANLYSPVRNGAVR [I15Y], the protein stability index turned out to be 3.27.
On to RVRPLARVTSLANLLSPVRNGAVR [I15L], for which the protein stability index was determined as 3.03.
RVRPLARVTSLANLSSPVRNGAVR [I15S]: the protein stability index came out at 3.63.
On to RVRPLARVTSLANLESPVRNGAVR [I15E], for which the protein stability index came out at 4.08.
For the variant RVRPLARVTSLANLISPERNGAVR [V18E], the protein stability index is 3.63.
Regarding RVRPLARVTSLANLISPYRNGAVR [V18Y], the protein stability index was found to be 2.23.
Consider RVRPLARVTSLANLISPWRNGAVR [V18W], for which the protein stability index is 2.25.
Turning to RVRPLARVTSLANLISPGRNGAVR [V18G], the protein stability index was found to be 3.49.
RVRPLARVTSLANLISPLRNGAVR [V18L]: the protein stability index is 2.94.
RVRPLARVTSLANLISPFRNGAVR [V18F]: the protein stability index came out at 2.29.
Take RVRPLARVTSLANLISPNRNGAVR [V18N]: the protein stability index was 3.2.
With RVRPLARVTSLANLISPQRNGAVR [V18Q], the protein stability index worked out at 3.63.
As to RVRPLARVTSLANLISPRRNGAVR [V18R], the protein stability index amounted to 3.15.
RVRPLARVTSLANLISPDRNGAVR [V18D]: the protein stability index came to 4.03.
As for RVRPLARVTSLANLISPCRNGAVR [V18C], the protein stability index is 2.21.
Regarding RVRPLARVTSLANLISPHRNGAVR [V18H], the protein stability index was 2.75.
The same measure for RVRPLARVTSLANLISPSRNGAVR [V18S]: 4.17; for RVRPLARVTSLANLISPPRNGAVR [V18P]: 3.12.
The same measure for RVRPLARVTSLANLISPMRNGAVR [V18M]: 3.07; for RVRPLARVTSLANLISPTRNGAVR [V18T]: 3.68; for RVRPLARVTSLANLISPARNGAVR [V18A]: 3.03.
As to RVRPLARVTSLANLISPKRNGAVR [V18K], the protein stability index was 2.31.
For RVRPLARVTSLANLISPIRNGAVR [V18I], the protein stability index came to 2.83.
Take RVRPLARVTSLANLISIVRNGAVR [P17I]: the protein stability index stood at 2.24.
For RVRPLARVTSLANLISNVRNGAVR [P17N], the protein stability index worked out at 2.81.
As to RVRPLARVTSLANLISWVRNGAVR [P17W], the protein stability index came out at 1.89.
With RVRPLARVTSLANLISLVRNGAVR [P17L], the protein stability index was 2.03.
On to RVRPLARVTSLANLISYVRNGAVR [P17Y], for which the protein stability index stood at 2.07.
For RVRPLARVTSLANLISDVRNGAVR [P17D], the protein stability index worked out at 3.03.
RVRPLARVTSLANLISCVRNGAVR [P17C]: the protein stability index is 3.96.
For the variant RVRPLARVTSLANLISFVRNGAVR [P17F], the protein stability index came out at 1.56.
The same measure for RVRPLARVTSLANLISTVRNGAVR [P17T]: 2.8; for RVRPLARVTSLANLISGVRNGAVR [P17G]: 2.14.
As for RVRPLARVTSLANLISSVRNGAVR [P17S], the protein stability index was 3.45.
The same measure for RVRPLARVTSLANLISHVRNGAVR [P17H]: 2.15.
On to RVRPLARVTSLANLISVVRNGAVR [P17V], for which the protein stability index amounted to 3.16.
With RVRPLARVTSLANLISAVRNGAVR [P17A], the protein stability index was 2.1.
In the case of RVRPLARVTSLANLISRVRNGAVR [P17R], the protein stability index was determined as 2.24.
For RVRPLARVTSLANLISQVRNGAVR [P17Q], the protein stability index is 2.29.
As for RVRPLARVTSLANLISKVRNGAVR [P17K], the protein stability index is 3.09.
On to RVRPLARVTSLANLISEVRNGAVR [P17E], for which the protein stability index was found to be 2.4.
In the case of RVRPLARVTSLANLISMVRNGAVR [P17M] it was 2.17.
In the case of RVRPLARVTSLANWISPVRNGAVR [L14W] it was 4.15.
In the case of RVRPLARVTSLANYISPVRNGAVR [L14Y], the protein stability index was 3.17.
